In article PMC7987177:

Assays:
[1] = target: wild-type Aplysia Kv1 voltage-gated potassium channel subunit, full-length (aKv1/FL) (Aplysia)
[2] = target: wild-type Aplysia Kv1 voltage-gated potassium channel subunit, full-length (aKv1/FL) (Aplysia); remark: listed apart in the source

Question: Which results are given for “Opto-aKv1/SL/V400D (dominant-negative, short-length Opto-aKv1 subunit: aKv1 N-terminus, VfAu1 LOV domain, aKv1 from the T1 domain on, pore mutation V400D)”?
Answer: reduction in current density at +80 mV in cerebellar granule cells electroporated with both constructs, after 1.5 hours of blue light [1]: 80%; suppression of the fast inactivating aKv1/FL whole-cell current in co-transfected CHO cells after 1.5 hours of blue light [2]: 70%
